Measured values taken from US20140274782A1, “AFFINITY REAGENTS AND METHODS FOR DETECTION, PURIFICATION, AND PROTEOMIC ANALYSIS OF METHYLATED PROTEINS” (The Board of Trustees of the Leland Stanford Junior …, priority 2013, published 2014).
Each block holds one molecule with its values, some of them ahead of it.

How the values were obtained:
3×MBT domain of L3MBTL1 = experiment: Triple SILAC pull-down, 3xMBT/3xMBTD355N ratio (cytoplasmic, nuclear and chromatin fractions of 293T cells); assay type: binding, human; details: for 3xMBT/D355N UNC Heavy: experiment with UNC0638 in heavy SILAC media; for 3xMBT/D355N UNC Light: experiment with UNC0638 in light SILAC media;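 on all read-outs here: proteins quantified with MaxQuant, requiring at least two unique peptides and quantification in both label directions, normalized to the mean of proteins from a digested loading control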
G9a and GLP = target: T1, G9a and GLP (Homo sapiens, UniProt Q96KQ7+Q9H9B1); experiment: Triple SILAC pull-down after UNC0638 treatment of 293T cells, DMSO/UNC0638 ratio of protein captured by 3×MBT; assay type: cell-based; parameters: endogenous in cells; host or cells: HEK 293T; details: for Relative to UNC0638 UNC Heavy: UNC0638 in heavy SILAC media; for Relative to UNC0638 UNC Light: UNC0638 in light SILAC media; for Relative to UNC0638 Average: average of UNC Light and UNC Heavy experiments;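 on all read-outs here: mass spectrometry (Q-Exactive) SILAC quantitation, DMSO/UNC0638 ratio computed after subtracting 3×MBTD355N mutant pull-down background, only proteins with at least twofold 3×MBT over mutant signal considered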
T1 sequence (Q96KQ7 2-1210 limits assumed): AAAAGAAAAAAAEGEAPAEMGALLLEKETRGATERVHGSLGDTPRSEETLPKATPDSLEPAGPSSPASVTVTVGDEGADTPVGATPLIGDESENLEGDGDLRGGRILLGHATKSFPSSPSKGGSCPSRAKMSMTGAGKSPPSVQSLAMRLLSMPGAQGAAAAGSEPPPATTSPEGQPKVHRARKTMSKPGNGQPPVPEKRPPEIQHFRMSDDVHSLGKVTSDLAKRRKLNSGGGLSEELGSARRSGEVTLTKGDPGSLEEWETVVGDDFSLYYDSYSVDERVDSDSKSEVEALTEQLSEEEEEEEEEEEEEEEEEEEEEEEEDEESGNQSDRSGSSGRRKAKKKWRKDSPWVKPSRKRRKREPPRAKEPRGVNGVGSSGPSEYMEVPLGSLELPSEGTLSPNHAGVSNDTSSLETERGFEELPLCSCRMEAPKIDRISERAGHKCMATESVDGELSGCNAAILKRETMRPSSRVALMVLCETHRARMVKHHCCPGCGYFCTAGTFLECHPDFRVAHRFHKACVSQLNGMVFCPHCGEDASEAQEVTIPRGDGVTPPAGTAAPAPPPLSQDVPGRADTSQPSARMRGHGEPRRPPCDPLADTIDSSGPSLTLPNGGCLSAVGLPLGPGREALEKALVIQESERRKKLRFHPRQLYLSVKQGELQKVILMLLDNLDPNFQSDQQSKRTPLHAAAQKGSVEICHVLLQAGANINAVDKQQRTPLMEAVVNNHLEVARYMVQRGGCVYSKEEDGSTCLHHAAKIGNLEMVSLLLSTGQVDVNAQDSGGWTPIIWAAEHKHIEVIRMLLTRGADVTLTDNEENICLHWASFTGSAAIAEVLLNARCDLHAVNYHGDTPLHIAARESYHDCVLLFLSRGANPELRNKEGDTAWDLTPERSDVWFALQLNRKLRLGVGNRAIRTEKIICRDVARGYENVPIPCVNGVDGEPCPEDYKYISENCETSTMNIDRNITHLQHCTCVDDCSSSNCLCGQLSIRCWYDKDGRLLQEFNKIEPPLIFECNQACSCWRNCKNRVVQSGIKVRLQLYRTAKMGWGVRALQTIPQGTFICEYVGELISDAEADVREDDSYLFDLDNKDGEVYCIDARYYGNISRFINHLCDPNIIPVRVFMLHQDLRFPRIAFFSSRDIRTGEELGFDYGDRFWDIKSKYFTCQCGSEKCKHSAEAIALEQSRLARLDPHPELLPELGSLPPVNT
T1 sequence (Q9H9B1 2-1298 limits assumed): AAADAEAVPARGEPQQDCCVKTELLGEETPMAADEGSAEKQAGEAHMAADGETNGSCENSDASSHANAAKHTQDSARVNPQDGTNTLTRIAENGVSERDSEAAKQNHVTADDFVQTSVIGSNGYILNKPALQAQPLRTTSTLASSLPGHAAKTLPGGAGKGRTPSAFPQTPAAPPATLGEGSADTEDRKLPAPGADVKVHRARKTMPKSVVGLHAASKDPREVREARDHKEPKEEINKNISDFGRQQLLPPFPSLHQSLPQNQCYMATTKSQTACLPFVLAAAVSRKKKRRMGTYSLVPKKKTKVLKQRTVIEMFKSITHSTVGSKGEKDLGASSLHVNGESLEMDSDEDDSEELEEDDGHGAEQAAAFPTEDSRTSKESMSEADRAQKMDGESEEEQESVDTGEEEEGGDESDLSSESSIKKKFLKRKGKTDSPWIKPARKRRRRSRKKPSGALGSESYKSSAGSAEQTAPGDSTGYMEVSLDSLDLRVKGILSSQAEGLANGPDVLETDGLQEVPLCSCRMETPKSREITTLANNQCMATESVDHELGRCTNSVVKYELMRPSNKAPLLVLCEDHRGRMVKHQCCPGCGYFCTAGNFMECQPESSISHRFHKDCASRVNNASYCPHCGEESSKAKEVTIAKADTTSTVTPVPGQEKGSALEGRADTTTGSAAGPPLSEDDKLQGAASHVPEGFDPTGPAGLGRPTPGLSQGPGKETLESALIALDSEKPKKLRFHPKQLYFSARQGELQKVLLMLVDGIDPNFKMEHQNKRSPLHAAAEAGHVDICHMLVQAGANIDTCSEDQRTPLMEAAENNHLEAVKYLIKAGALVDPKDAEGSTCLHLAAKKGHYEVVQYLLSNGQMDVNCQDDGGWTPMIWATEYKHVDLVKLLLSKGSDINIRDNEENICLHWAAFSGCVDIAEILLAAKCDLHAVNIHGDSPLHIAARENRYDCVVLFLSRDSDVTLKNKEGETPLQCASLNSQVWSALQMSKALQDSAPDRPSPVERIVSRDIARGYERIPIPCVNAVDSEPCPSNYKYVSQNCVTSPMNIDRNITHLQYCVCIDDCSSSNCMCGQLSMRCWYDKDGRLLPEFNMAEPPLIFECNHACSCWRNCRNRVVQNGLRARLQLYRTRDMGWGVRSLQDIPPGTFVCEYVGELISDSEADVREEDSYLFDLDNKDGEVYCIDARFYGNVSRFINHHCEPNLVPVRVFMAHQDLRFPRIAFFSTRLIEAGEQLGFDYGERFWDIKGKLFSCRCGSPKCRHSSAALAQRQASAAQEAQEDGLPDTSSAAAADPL

[1] = SILAC ratio 3xMBT vs 3xMBTD355N pull-down, 293T cells, all values in log base 2
[2] = SILAC ratio DMSO relative to UNC0638, pull-down with 3xMBT, all values in log base 2
[3] = SILAC ratio, pull-down 3xMBT vs 3xMBTD355N
[4] = SILAC ratio DMSO/UNC0638 of protein pulled down with 3xMBT

Relative to UNC0638 UNC Heavy (G9a and GLP; [2]): 0.03 log base 2 | Relative to UNC0638 UNC Light (G9a and GLP; [2]): 0.07 log base 2 | Relative to UNC0638 Average (G9a and GLP; all values in log base 2): 0.05 log base 2
B1: PUF60 (protein, UniProt Q9UHX1 1-559, looked up)
Poly(U)-binding-splicing …: MATATIALQVNGQQGGGSEPAAAAAVVAAGDKWKPPQGTDSIKMENGQSTAAKLGLPPLTPEQQEALQKAKKYAMEQSIKSVLVKQTIAHQQQQLTNLQMAAVTMGFGDPLSPLQSMAAQRQRALAIMCRVYVGSIYYELGEDTIRQAFAPFGPIKSIDMSWDSVTMKHKGFAFVEYEVPEAAQLALEQMNSVMLGGRNIKVGRPSNIGQAQPIIDQLAEEARAFNRIYVASVHQDLSDDDIKSVFEAFGKIKSCTLARDPTTGKHKGYGFIEYEKAQSSQDAVSSMNLFDLGGQYLRVGKAVTPPMPLLTPATPGGLPPAAAVAAAAATAKITAQEAVAGAAVLGTLGTPGLVSPALTLAQPLGTLPQAVMAAQAPGVITGVTPARPPIPVTIPSVGVVNPILASPPTLGLLEPKKEKEEEELFPESERPEMLSEQEHMSISGSSARHMVMQKLLRKQESTVMVLRNMVDPKDIDDDLEGEVTEECGKFGAVNRVIIYQEKQGEEEDAEIIVKIFVEFSIASETHKAIQALNGRWFAGRKVVAEVYDQERFDNSDLSA
3xMBT/D355N UNC Heavy (3×MBT domain of L3MBTL1; [1]): 1.71 log base 2 | 3xMBT/D355N UNC Light (3×MBT domain of L3MBTL1; [1]): 2.61 log base 2

Relative to UNC0638 UNC Heavy (G9a and GLP; [4]): 0.46 log base 2 | Relative to UNC0638 UNC Light (G9a and GLP; [4]): 0.50 log base 2 | Relative to UNC0638 Average (G9a and GLP): 0.48 log base 2 | Candidate G9a/GLP target (G9a and GLP; reduced association with 3xMBT after UNC0638 treatment): ✓
B2: PPIL4 (protein, UniProt Q8WUA2 1-492, looked up)
Peptidyl-prolyl cis-trans …: MAVLLETTLGDVVIDLYTEERPRACLNFLKLCKIKYYNYCLIHNVQRDFIIQTGDPTGTGRGGESIFGQLYGDQASFFEAEKVPRIKHKKKGTVSMVNNGSDQHGSQFLITTGENLDYLDGVHTVFGEVTEGMDIIKKINETFVDKDFVPYQDIRINHTVILDDPFDDPPDLLIPDRSPEPTREQLDSGRIGADEEIDDFKGRSAEEVEEIKAEKEAKTQAILLEMVGDLPDADIKPPENVLFVCKLNPVTTDEDLEIIFSRFGPIRSCEVIRDWKTGESLCYAFIEFEKEEDCEKAFFKMDNVLIDDRRIHVDFSQSVAKVKWKGKGGKYTKSDFKEYEKEQDKPPNLVLKDKVKPKQDTKYDLILDEQAEDSKSSHSHTSKKHKKKTHHCSEEKEDEDYMPIKNTNQDIYREMGFGHYEEEESCWEKQKSEKRDRTQNRSRSRSRERDGHYSNSHKSKYQTDLYERERSKKRDRSRSPKKSKDKEKSKYR
3xMBT/D355N UNC Heavy (3×MBT domain of L3MBTL1; [3]): 1.63 log base 2 | 3xMBT/D355N UNC Light (3×MBT domain of L3MBTL1; [3]): 2.38 log base 2

Relative to UNC0638 UNC Heavy (G9a and GLP; [2]): 0.21 log base 2 | Relative to UNC0638 UNC Light (G9a and GLP; [2]): −0.06 log base 2 | Relative to UNC0638 Average (G9a and GLP; all values in log base 2): 0.07 log base 2
B3: STRBP (protein, UniProt Q96SI9 1-672, looked up)
Spermatid perinuclear …: MRSIRSFANDDRHVMVKHSTIYPSPEELEAVQNMVSTVECALKHVSDWLDETNKGTKTEGETEVKKDEAGENYSKDQGGRTLCGVMRIGLVAKGLLIKDDMDLELVLMCKDKPTETLLNTVKDNLPIQIQKLTEEKYQVEQCVNEASIIIRNTKEPTLTLKVILTSPLIRDELEKKDGENVSMKDPPDLLDRQKCLNALASLRHAKWFQARANGLKSCVIVLRILRDLCNRVPTWAPLKGWPLELICEKSIGTCNRPLGAGEALRRVMECLASGILLPGGPGLHDPCERDPTDALSYMTIQQKEDITHSAQHALRLSAFGQIYKVLEMDPLPSSKPFQKYSWSVTDKEGAGSSALKRPFEDGLGDDKDPNKKMKRNLRKILDSKAIDLMNALMRLNQIRPGLQYKLLSQSGPVHAPVFTMSVDVDGTTYEASGPSKKTAKLHVAVKVLQAMGYPTGFDADIECMSSDEKSDNESKNETVSSNSSNNTGNSTTETSSTLEVRTQGPILTASGKNPVMELNEKRRGLKYELISETGGSHDKRFVMEVEVDGQKFRGAGPNKKVAKASAALAALEKLFSGPNAANNKKKKIIPQAKGVVNTAVSAAVQAVRGRGRGTLTRGAFVGATAAPGYIAPGYGTPYGYSTAAPAYGLPKRMVLLPVMKFPTYPVPHYSFF
3xMBT/D355N UNC Heavy (3×MBT domain of L3MBTL1; [1]): 2.70 log base 2 | 3xMBT/D355N UNC Light (3×MBT domain of L3MBTL1; [1]): 3.07 log base 2

Relative to UNC0638 UNC Heavy (G9a and GLP; [2]): 0.07 log base 2 | Relative to UNC0638 UNC Light (G9a and GLP; [2]): 0.08 log base 2 | Relative to UNC0638 Average (G9a and GLP; all values in log base 2): 0.07 log base 2
B4: RAD21 (protein, UniProt O60216 1-631, looked up)
Double-strand-break repair …: MFYAHFVLSKRGPLAKIWLAAHWDKKLTKAHVFECNLESSVESIISPKVKMALRTSGHLLLGVVRIYHRKAKYLLADCNEAFIKIKMAFRPGVVDLPEENREAAYNAITLPEEFHDFDQPLPDLDDIDVAQQFSLNQSRVEEITMREEVGNISILQENDFGDFGMDDREIMREGSAFEDDDMLVSTTTSNLLLESEQSTSNLNEKINHLEYEDQYKDDNFGEGNDGGILDDKLISNNDGGIFDDPPALSEAGVMLPEQPAHDDMDEDDNVSMGGPDSPDSVDPVEPMPTMTDQTTLVPNEEEAFALEPIDITVKETKAKRKRKLIVDSVKELDSKTIRAQLSDYSDIVTTLDLAPPTKKLMMWKETGGVEKLFSLPAQPLWNNRLLKLFTRCLTPLVPEDLRKRRKGGEADNLDEFLKEFENPEVPREDQQQQHQQRDVIDEPIIEEPSRLQESVMEASRTNIDESAMPPPPPQGVKRKAGQIDPEPVMPPQQVEQMEIPPVELPPEEPPNICQLIPELELLPEKEKEKEKEKEDDEEEEDEDASGGDQDQEERRWNKRTQQMLHGLQRALAKTGAESISLLELCRNTNRKQAAAKFYSFLVLKKQQAIELTQEEPYSDIIATPGPRFHII
3xMBT/D355N UNC Heavy (3×MBT domain of L3MBTL1; [1]): 2.15 log base 2 | 3xMBT/D355N UNC Light (3×MBT domain of L3MBTL1; [1]): 1.49 log base 2
